This is an account of results in US10941182 (Amgen, dated 2021).

Starred links: 1 amine or outer side, 2 acyl side, 3 side chain; linkers in the order of their positions; H or OH if unused. Non-standard residues stand in square brackets, D forms with d. *: point of attachment. Oic = O=C(O)[C@@H]1C[C@@H]2CCCC[C@@H]2N1; Phe(4-Cl) = N[C@@H](Cc1ccc(Cl)cc1)C(=O)O; γGlu = O=C(O)[C@H](CCC(=O)[*:2])N[*:1]; NMeR = CN[C@@H](CCCNC(=N)N)C(=O)O; Tridecanoyl = CCCCCCCCCCCCC(=O)*; hArg = N=C(N)NCCCC[C@H](N)C(=O)O; Cha = N[C@@H](CC1CCCCC1)C(=O)O; Nle = CCCC[C@H](N)C(=O)O; AEEA = NCCOCCOCC(=O)O

The target of one experiment is T1, human APJ receptor (human, UniProt P35414 1-380).
T1 sequence (looked up): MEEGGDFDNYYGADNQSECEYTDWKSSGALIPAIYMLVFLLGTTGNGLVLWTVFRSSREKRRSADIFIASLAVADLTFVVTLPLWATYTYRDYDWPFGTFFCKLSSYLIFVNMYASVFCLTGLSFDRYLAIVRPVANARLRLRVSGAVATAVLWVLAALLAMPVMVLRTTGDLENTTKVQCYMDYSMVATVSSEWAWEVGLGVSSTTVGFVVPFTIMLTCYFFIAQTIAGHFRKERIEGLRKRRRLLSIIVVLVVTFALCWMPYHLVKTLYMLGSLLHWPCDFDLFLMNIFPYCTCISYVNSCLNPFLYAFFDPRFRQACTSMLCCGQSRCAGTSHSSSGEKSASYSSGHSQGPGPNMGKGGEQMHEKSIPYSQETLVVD
The experiment can be described thus: cell-based or functional assay.

The next experiment has as its target T2, rat APJ receptor (rat, UniProt Q9JHG3 1-377).
T2 sequence (looked up): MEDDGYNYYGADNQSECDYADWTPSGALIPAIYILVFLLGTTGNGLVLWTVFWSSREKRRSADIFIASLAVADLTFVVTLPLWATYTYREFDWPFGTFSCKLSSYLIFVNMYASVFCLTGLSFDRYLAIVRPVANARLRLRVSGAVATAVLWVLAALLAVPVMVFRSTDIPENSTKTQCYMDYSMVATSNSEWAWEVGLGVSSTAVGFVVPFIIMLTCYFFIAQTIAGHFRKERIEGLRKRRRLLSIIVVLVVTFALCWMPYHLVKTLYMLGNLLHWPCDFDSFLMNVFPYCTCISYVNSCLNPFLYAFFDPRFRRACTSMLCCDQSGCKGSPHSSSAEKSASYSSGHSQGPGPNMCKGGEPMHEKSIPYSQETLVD
The experiment in a line: cell-based or functional assay.

B1: Apelin polypeptide SEQ ID NO: 480 (peptide)
peptide: Tridecanoyl-[γGlu][AEEA][AEEA][dR]Q[hArg]P[hArg][Cha]SHKG[Oic][Nle]P[Phe(4-Cl)]-OH
SMILES: CCCCCCCCCCCCC(=O)N[C@@H](CCC(=O)NCCOCCOCC(=O)NCCOCCOCC(=O)N[C@H](CCCNC(=N)N)C(=O)N[C@@H](CCC(N)=O)C(=O)N[C@@H](CCCCNC(=N)N)C(=O)N1CCC[C@H]1C(=O)N[C@@H](CCCCNC(=N)N)C(=O)N[C@@H](CC1CCCCC1)C(=O)N[C@@H](CO)C(=O)N[C@@H](Cc1c[nH]cn1)C(=O)N[C@@H](CCCCN)C(=O)NCC(=O)N1[C@H](C(=O)N[C@@H](CCCC)C(=O)N2CCC[C@H]2C(=O)N[C@@H](Cc2ccc(Cl)cc2)C(=O)O)C[C@@H]2CCCC[C@@H]21)C(=O)O
Take B1: the “EC50 Human APJ Receptor (GTPγS assay)” value with human APJ receptor worked out at 99.8 pM. Besides, the “EC50 Rat APJ Receptor (GTPγS assay)” value in the experiment with rat APJ receptor stood at 271 pM.

B2: Apelin polypeptide SEQ ID NO: 465 (peptide)
peptide: Tridecanoyl-[γGlu][AEEA][AEEA]QRPQLSHKGP[Nle]P[Phe(4-Cl)]-OH
SMILES: CCCCCCCCCCCCC(=O)N[C@@H](CCC(=O)NCCOCCOCC(=O)NCCOCCOCC(=O)N[C@@H](CCC(N)=O)C(=O)N[C@@H](CCCNC(=N)N)C(=O)N1CCC[C@H]1C(=O)N[C@@H](CCC(N)=O)C(=O)N[C@@H](CC(C)C)C(=O)N[C@@H](CO)C(=O)N[C@@H](Cc1c[nH]cn1)C(=O)N[C@@H](CCCCN)C(=O)NCC(=O)N1CCC[C@H]1C(=O)N[C@@H](CCCC)C(=O)N1CCC[C@H]1C(=O)N[C@@H](Cc1ccc(Cl)cc1)C(=O)O)C(=O)O
As for B2, the “EC50 Human APJ Receptor (GTPγS assay)” value with human APJ receptor was found to be 69.2 pM. In the experiment with rat APJ receptor, the “EC50 Rat APJ Receptor (GTPγS assay)” value is 174 pM.

B3: Apelin polypeptide SEQ ID NO: 479 (peptide)
peptide: Tridecanoyl-[γGlu][AEEA][AEEA][dR]Q[hArg]P[NMeR][Cha]SHKG[Oic][Nle]P[Phe(4-Cl)]-OH
SMILES: CCCCCCCCCCCCC(=O)N[C@@H](CCC(=O)NCCOCCOCC(=O)NCCOCCOCC(=O)N[C@H](CCCNC(=N)N)C(=O)N[C@@H](CCC(N)=O)C(=O)N[C@@H](CCCCNC(=N)N)C(=O)N1CCC[C@H]1C(=O)N(C)[C@@H](CCCNC(=N)N)C(=O)N[C@@H](CC1CCCCC1)C(=O)N[C@@H](CO)C(=O)N[C@@H](Cc1c[nH]cn1)C(=O)N[C@@H](CCCCN)C(=O)NCC(=O)N1[C@H](C(=O)N[C@@H](CCCC)C(=O)N2CCC[C@H]2C(=O)N[C@@H](Cc2ccc(Cl)cc2)C(=O)O)C[C@@H]2CCCC[C@@H]21)C(=O)O
Consider B3, for which, in the experiment with human APJ receptor, the “EC50 Human APJ Receptor (GTPγS assay)” value turned out to be 408 pM. Further, the “EC50 Rat APJ Receptor (GTPγS assay)” value in the experiment with rat APJ receptor was determined as 806 pM.

B4: Apelin polypeptide SEQ ID NO: 430 (peptide)
peptide: Tridecanoyl-[γGlu][AEEA][AEEA]Q[dR]P[dR][Cha]SHKG[Oic][Nle]P[Phe(4-Cl)]-OH
SMILES: CCCCCCCCCCCCC(=O)N[C@@H](CCC(=O)NCCOCCOCC(=O)NCCOCCOCC(=O)N[C@@H](CCC(N)=O)C(=O)N[C@H](CCCNC(=N)N)C(=O)N1CCC[C@H]1C(=O)N[C@H](CCCNC(=N)N)C(=O)N[C@@H](CC1CCCCC1)C(=O)N[C@@H](CO)C(=O)N[C@@H](Cc1c[nH]cn1)C(=O)N[C@@H](CCCCN)C(=O)NCC(=O)N1[C@H](C(=O)N[C@@H](CCCC)C(=O)N2CCC[C@H]2C(=O)N[C@@H](Cc2ccc(Cl)cc2)C(=O)O)C[C@@H]2CCCC[C@@H]21)C(=O)O
Take B4: in the experiment with human APJ receptor, the “EC50 Human APJ Receptor (GTPγS assay)” value came to 1220 pM. Further, the “EC50 Rat APJ Receptor (GTPγS assay)” value in the experiment with rat APJ receptor turned out to be 2840 pM.
